Tests used:
APC3881-AA = target: T1, APC3881-AA; test: two-hybrid library CCmax; conditions: mean of both orientations;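 further: natural log of median RNA to DNA barcode read ratio; higher means stronger binding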
T1 chain: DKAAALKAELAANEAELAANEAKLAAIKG

APC9182-AA = target: T2, APC9182-AA; test: two-hybrid library CCmax; conditions: mean of both orientations;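 further: natural log of median RNA to DNA barcode read ratio; higher means stronger binding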
T2 chain: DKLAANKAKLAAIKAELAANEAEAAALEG

APC8401-AA = target: T3, APC8401-AA; test: two-hybrid library CCmax; conditions: mean of both orientations;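 further: natural log of median RNA to DNA barcode read ratio; higher means stronger binding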
T3 chain: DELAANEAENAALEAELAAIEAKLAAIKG

APC2543-AA = target: T4, APC2543-AA; test: two-hybrid library CCmax; conditions: mean of both orientations;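 further: natural log of median RNA to DNA barcode read ratio; higher means stronger binding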
T4 chain: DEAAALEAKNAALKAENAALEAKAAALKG

APC3265-AA = target: T5, APC3265-AA; test: two-hybrid library CCmax; conditions: mean of both orientations
T5 chain: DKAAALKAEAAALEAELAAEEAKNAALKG

APC9806-AA = target: T6, APC9806-AA; test: two-hybrid library CCmax; conditions: mean of both orientations
T6 chain: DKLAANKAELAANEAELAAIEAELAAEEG

APC2257-AA = target: T7, APC2257-AA; test: two-hybrid library CCmax; conditions: mean of both orientations
T7 chain: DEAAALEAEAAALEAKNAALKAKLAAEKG

APC2375-AA = target: T8, APC2375-AA; test: two-hybrid library CCmax; conditions: mean of both orientations
T8 chain: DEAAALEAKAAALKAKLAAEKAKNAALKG

APC5009-AA = target: T9, APC5009-AA; test: two-hybrid library CCmax; conditions: mean of both orientations
T9 chain: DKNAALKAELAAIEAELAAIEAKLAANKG

APC2474-AA = target: T10, APC2474-AA; test: two-hybrid library CCmax; conditions: mean of both orientations
T10 chain: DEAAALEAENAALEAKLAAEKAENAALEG

APC2981-AA = target: T11, APC2981-AA; test: two-hybrid library CCmax; conditions: mean of both orientations
T11 chain: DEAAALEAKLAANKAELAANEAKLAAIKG

APC9291-AA = target: T12, APC9291-AA; test: two-hybrid library CCmax; conditions: mean of both orientations
T12 chain: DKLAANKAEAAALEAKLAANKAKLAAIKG

APC3354-AA = target: T13, APC3354-AA; test: two-hybrid library CCmax; conditions: mean of both orientations
T13 chain: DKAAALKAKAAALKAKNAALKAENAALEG

APC6088-AA = target: T14, APC6088-AA; test: two-hybrid library CCmax; conditions: mean of both orientations
T14 chain: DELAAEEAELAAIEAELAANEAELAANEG

APC4100-AA = target: T15, APC4100-AA; test: two-hybrid library CCmax; conditions: mean of both orientations
T15 chain: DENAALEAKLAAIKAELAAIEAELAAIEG

APC9141-AA = target: T16, APC9141-AA; test: two-hybrid library CCmax; conditions: mean of both orientations
T16 chain: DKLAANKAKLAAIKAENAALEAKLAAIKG

APC542-AA = target: T17, APC542-AA; test: two-hybrid library CCmax; conditions: mean of both orientations
T17 chain: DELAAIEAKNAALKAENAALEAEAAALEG

APC8516-AA = target: T18, APC8516-AA; test: two-hybrid library CCmax; conditions: mean of both orientations
T18 chain: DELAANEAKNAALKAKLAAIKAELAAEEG

APC5531-AA = target: T19, APC5531-AA; test: two-hybrid library CCmax; conditions: mean of both orientations
T19 chain: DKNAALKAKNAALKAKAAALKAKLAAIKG

APC222-AA = target: T20, APC222-AA; test: two-hybrid library CCmax; conditions: mean of both orientations
T20 chain: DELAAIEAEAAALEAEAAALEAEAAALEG

APC2724-AA = target: T21, APC2724-AA; test: two-hybrid library CCmax; conditions: mean of both orientations
T21 chain: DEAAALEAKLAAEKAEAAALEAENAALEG

APC4336-AA = target: T22, APC4336-AA; test: two-hybrid library CCmax; conditions: mean of both orientations
T22 chain: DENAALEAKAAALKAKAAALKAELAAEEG

APC7524-AA = target: T23, APC7524-AA; test: two-hybrid library CCmax; conditions: mean of both orientations
T23 chain: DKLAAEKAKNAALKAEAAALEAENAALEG

APC2811-AA = target: T24, APC2811-AA; test: two-hybrid library CCmax; conditions: mean of both orientations
T24 chain: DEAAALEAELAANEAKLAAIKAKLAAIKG

APC3323-AA = target: T25, APC3323-AA; test: two-hybrid library CCmax; conditions: mean of both orientations
T25 chain: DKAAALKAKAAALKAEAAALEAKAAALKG

APC1987-AA = target: T26, APC1987-AA; test: two-hybrid library CCmax
T26 chain: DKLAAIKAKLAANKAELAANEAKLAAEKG

APC2556-AA = target: T27, APC2556-AA; test: two-hybrid library CCmax; conditions: mean of both orientations
T27 chain: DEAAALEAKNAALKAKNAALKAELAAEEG

4H3010-bH = target: T28, 4H3010-bH; test: two-hybrid library CCNG1
T28 chain: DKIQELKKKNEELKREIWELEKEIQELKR

4H4073-bH = target: T29, 4H4073-bH; test: two-hybrid library CCNG1
T29 chain: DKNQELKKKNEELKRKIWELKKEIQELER

4H883-bN = target: T30, 4H883-bN; test: two-hybrid library CCNG1
T30 chain: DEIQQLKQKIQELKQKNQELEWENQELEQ

4H346-bH = target: T31, 4H346-bH; test: two-hybrid library CCNG1
T31 chain: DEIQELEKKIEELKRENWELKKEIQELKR

4H855-bH = target: T32, 4H855-bH; test: two-hybrid library CCNG1
T32 chain: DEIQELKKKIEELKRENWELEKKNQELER

4H2586-bH = target: T33, 4H2586-bH; test: two-hybrid library CCNG1
T33 chain: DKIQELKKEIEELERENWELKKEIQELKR

4H3112-bH = target: T34, 4H3112-bH; test: two-hybrid library CCNG1
T34 chain: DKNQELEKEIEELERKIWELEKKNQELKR

4H683-bH = target: T35, 4H683-bH; test: two-hybrid library CCNG1
T35 chain: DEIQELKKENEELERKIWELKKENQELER

4H118-bH = target: T36, 4H118-bH; test: two-hybrid library CCNG1
T36 chain: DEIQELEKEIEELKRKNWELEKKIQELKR

4H575-bH = target: T37, 4H575-bH; test: two-hybrid library CCNG1
T37 chain: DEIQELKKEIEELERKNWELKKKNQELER

4H3926-bH = target: T38, 4H3926-bH; test: two-hybrid library CCNG1
T38 chain: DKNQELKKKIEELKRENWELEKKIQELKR

4H2673-bH = target: T39, 4H2673-bH; test: two-hybrid library CCNG1
T39 chain: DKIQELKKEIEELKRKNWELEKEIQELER

4H2627-bH = target: T40, 4H2627-bH; test: two-hybrid library CCNG1
T40 chain: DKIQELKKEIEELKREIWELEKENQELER

4H2702-bH = target: T41, 4H2702-bH; test: two-hybrid library CCNG1
T41 chain: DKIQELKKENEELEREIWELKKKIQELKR

4H3961-bA = target: T42, 4H3961-bA; test: two-hybrid library CCNG1
T42 chain: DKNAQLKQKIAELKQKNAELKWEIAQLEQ

4H457-bH = target: T43, 4H457-bH; test: two-hybrid library CCNG1
T43 chain: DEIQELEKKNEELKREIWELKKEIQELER

4H3427-bH = target: T44, 4H3427-bH; test: two-hybrid library CCNG1
T44 chain: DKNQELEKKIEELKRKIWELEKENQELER

4H780-bH = target: T45, 4H780-bH; test: two-hybrid library CCNG1
T45 chain: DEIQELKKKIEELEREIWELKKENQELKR

4H968-bH = target: T46, 4H968-bH; test: two-hybrid library CCNG1
T46 chain: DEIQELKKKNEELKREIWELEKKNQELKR

4H170-bH = target: T47, 4H170-bH; test: two-hybrid library CCNG1
T47 chain: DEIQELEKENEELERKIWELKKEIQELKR

4H797-bH = target: T48, 4H797-bH; test: two-hybrid library CCNG1
T48 chain: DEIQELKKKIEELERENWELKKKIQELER

4H918-bH = target: T49, 4H918-bH; test: two-hybrid library CCNG1
T49 chain: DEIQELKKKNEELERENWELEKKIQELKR

4H1831-bH = target: T50, 4H1831-bH; test: two-hybrid library CCNG1
T50 chain: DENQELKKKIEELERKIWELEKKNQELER

4H754-bH = target: T51, 4H754-bH; test: two-hybrid library CCNG1
T51 chain: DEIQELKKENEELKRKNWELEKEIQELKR

4H953-bH = target: T52, 4H953-bH; test: two-hybrid library CCNG1
T52 chain: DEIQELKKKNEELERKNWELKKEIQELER

Binder: DKLAAIKAKLAANKAELAANEAKLAAEKG [APC1987-AA]
- interaction score (APC3881-AA): -1.66
- interaction score (APC9182-AA): -1.95
- interaction score (APC8401-AA): -1.6
- interaction score (APC2543-AA): -2.01
- interaction score (APC3265-AA): -1.69
- interaction score (APC9806-AA): -1.87
- interaction score (APC2257-AA): -1.35
- interaction score (APC2375-AA): -1.68
- interaction score (APC5009-AA): -1.2
- interaction score (APC2474-AA): -1.87
- interaction score (APC2981-AA): -1.82
- interaction score (APC9291-AA): -1.88
- interaction score (APC3354-AA): -1.64
- interaction score (APC6088-AA): -1.6
- interaction score (APC4100-AA): -1.33
- interaction score (APC9141-AA): -1.68
- interaction score (APC542-AA): -1.67
- interaction score (APC8516-AA): -2.25
- interaction score (APC5531-AA): -1.83
- interaction score (APC222-AA): -1.81
- interaction score (APC2724-AA): -1.7
- interaction score (APC4336-AA): -1.72
- interaction score (APC7524-AA): -1.75
- interaction score (APC2811-AA): -1.92
- interaction score (APC3323-AA): -2.07
- interaction score (APC1987-AA): -2.07
- interaction score (APC2556-AA): -1.78

Binder: DEIQELEKEIEELKRKNWELEKKIQELKR [4H118-bH]
- interaction score (4H3010-bH): 1.94
- interaction score (4H4073-bH): 0.239
- interaction score (4H883-bN): 1.72
- interaction score (4H346-bH): 0.654
- interaction score (4H855-bH): 0.119
- interaction score (4H2586-bH): 0.817
- interaction score (4H3112-bH): 0.102
- interaction score (4H683-bH): -0.584
- interaction score (4H118-bH): 1.75
- interaction score (4H575-bH): -0.101
- interaction score (4H3926-bH): 1.57
- interaction score (4H2673-bH): 1.9
- interaction score (4H2627-bH): 1.09
- interaction score (4H2702-bH): 0.513
- interaction score (4H3961-bA): 1.46
- interaction score (4H457-bH): 0.505
- interaction score (4H3427-bH): 1.04
- interaction score (4H780-bH): 0.443
- interaction score (4H968-bH): 1.49
- interaction score (4H170-bH): 1.57
- interaction score (4H797-bH): -0.304
- interaction score (4H918-bH): 0.604
- interaction score (4H1831-bH): -0.127
- interaction score (4H754-bH): 0.181
- interaction score (4H953-bH): 0.224
